The values that follow are results of earlier work, collected in paper PMC9849996.

As usually defined, the pKd is the Kd on a negative log10 scale, so that one unit is a factor of ten.

This data set has as its target ROS-GC1 (Bos taurus) (UniProt P55203). The experiment in a line: SPR; given as Ka. A general note: Surface plasmon resonance follows binding to a sensor surface in real time, without labels.

pKd: −log10 of the molar value.

UniProt P55203, sequence (P55203 57-1110): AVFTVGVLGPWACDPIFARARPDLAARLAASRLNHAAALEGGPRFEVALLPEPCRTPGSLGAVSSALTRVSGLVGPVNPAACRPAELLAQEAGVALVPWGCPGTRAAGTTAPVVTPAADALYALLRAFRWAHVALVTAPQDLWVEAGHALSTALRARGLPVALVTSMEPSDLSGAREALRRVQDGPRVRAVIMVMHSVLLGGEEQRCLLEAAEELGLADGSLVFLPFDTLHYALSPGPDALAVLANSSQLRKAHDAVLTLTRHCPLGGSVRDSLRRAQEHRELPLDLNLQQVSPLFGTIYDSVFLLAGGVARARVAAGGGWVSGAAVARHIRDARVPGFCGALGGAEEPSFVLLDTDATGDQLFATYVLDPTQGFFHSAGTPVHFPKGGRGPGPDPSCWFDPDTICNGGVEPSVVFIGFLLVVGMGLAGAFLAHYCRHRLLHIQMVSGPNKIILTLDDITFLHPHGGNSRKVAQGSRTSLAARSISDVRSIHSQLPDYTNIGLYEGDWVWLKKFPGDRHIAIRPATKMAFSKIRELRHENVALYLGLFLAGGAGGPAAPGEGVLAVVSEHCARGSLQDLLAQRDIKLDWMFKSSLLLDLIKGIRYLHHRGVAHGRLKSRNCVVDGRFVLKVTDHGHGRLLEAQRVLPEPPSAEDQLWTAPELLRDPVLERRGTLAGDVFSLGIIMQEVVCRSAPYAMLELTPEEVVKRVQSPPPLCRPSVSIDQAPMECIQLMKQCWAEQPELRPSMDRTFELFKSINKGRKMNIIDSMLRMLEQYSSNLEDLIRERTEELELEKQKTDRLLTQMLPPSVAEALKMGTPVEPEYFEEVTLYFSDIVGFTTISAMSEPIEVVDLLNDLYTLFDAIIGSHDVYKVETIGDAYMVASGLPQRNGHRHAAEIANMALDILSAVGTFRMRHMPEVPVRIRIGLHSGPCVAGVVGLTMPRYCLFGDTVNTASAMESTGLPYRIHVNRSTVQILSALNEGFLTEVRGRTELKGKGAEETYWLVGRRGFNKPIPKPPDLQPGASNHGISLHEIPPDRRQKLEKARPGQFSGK

With frequenin (from UniProt Q2V8Y7), the pKd is 6.37.
